In patent publication US20240228604A1 (ALCHEMAB THERAPEUTICS, published 2024):

Experiments:
[1] = target: T1, rmUNC5C, in-house production from HEK293F cells (N-terminal His and FLAG tag + amino acids 41-380 of murine … (mouse, UniProt O08747 41-380)); assay: direct ELISA
T1 construct: extracellular domain; also called mouse UNC5C (Inhouse antigen); recombinant mouse UNC5C
Experimental: (§1) The plate was washed with PBS. Plates were blocked with 200 μl/well of blocking solution (1% BSA w/v in PBS) for 1 hour at room temperature. Following this, the blocking solution was removed and antibodies to be assessed were diluted in dilution series (1 μM to 0.05 nM) in blocking solution (1% BSA w/v in PBS) and applied to the plate. Plates were incubated at room temperature for 1 hour. The plate was washed with PBS/0.1% Tween. […] The plate was washed with PBS/0.1% Tween and TMB solution (Life Technology; #002023) added. Plates were incubated for 5 minutes at room temperature prior to the addition of stopping solution (0.5M sulphuric acid). Absorbance was read on Molecular Devices FilterMaxF5 plate reader at 450 nm. Analysis was performed using a non-linear fit curve fitting algorithm on GraphPad prism and EC50 calculated.
(§2) To measure the binding potency of antibodies to UNC5C protein, antibodies were assessed in a direct ELISA format for binding to human UNC5C. In addition, a selection of these antibodies was also screened for binding to mouse, cyno, and rat UNC5C in a direct ELISA format.

[2] = target: T2, Recombinant rat UNC5C (N-terminal His and FLAG tag), in-house production from HEK293F cells (rat, UniProt Q761X5 41-380); assay: direct ELISA
T2 construct: also called rat UNC5C (inhouse antigen); rat antigen
T2 sequence (Q761X5 other isoform, or with tags, fused parts or gaps limits assumed): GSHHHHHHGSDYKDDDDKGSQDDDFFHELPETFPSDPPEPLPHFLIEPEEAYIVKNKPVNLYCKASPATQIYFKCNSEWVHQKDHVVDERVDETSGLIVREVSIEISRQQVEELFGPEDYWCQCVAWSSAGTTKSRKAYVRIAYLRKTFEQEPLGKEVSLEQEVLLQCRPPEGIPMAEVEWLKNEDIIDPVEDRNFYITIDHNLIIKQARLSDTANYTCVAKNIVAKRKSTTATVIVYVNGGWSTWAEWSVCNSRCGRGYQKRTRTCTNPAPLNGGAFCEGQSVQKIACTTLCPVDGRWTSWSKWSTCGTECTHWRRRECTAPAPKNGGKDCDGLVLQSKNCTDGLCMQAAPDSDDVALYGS
Experimental: as §1, §2

[3] = target: T3, Human recombinant DCC (BLI antigen) (Human, UniProt P43146 26-1097); assay: BLI, antigen captured by His tag, antibody as analyte
T3 construct: also called Netrin receptor DCC ectodomain
T3 sequence (P43146 other isoform, or with tags, fused parts or gaps): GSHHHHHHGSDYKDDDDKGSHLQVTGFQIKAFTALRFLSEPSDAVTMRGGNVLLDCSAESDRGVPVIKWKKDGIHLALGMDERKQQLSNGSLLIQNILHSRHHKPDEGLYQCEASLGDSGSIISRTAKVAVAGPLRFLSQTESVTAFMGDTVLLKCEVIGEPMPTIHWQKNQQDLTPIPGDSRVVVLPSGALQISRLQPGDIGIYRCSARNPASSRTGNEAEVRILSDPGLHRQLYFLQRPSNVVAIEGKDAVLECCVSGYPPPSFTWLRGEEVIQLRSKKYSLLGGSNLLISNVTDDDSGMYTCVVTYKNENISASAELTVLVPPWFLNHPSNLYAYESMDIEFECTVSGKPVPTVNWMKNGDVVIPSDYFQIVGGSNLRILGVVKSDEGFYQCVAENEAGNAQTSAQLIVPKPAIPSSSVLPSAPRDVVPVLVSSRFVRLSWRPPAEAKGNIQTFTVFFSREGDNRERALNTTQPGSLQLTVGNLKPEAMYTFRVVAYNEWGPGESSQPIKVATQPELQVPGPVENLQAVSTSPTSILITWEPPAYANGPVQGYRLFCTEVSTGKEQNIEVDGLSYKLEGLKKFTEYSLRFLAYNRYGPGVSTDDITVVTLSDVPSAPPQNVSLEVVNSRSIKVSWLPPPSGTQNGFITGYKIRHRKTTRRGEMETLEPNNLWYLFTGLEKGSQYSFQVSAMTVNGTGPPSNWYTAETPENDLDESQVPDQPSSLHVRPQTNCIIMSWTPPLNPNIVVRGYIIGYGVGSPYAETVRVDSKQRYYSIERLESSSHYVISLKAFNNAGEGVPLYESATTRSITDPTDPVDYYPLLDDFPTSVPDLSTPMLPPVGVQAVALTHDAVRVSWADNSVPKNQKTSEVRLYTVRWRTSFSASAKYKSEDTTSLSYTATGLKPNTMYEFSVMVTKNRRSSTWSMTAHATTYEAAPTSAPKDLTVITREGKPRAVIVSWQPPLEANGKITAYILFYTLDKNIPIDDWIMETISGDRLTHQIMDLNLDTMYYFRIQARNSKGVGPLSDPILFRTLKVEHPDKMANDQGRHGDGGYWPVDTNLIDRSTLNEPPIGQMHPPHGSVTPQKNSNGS
Description: (§3) Antigen was loaded as ligand and dipped into antibody as analyte during association, and assay buffer during dissociation.
(§4) Purified recombinant antigens were purchased from a commercial supplier or prepared and purified in-house and details are shown in Table 2.

[4] = target: T4, Human recombinant UNC5D (BLI antigen) (Human, UniProt Q6UXZ4 33-379); assay: as above
T4 construct: also called UNC5D ectodomain
T4 sequence (Q6UXZ4 other isoform, or with tags, fused parts or gaps): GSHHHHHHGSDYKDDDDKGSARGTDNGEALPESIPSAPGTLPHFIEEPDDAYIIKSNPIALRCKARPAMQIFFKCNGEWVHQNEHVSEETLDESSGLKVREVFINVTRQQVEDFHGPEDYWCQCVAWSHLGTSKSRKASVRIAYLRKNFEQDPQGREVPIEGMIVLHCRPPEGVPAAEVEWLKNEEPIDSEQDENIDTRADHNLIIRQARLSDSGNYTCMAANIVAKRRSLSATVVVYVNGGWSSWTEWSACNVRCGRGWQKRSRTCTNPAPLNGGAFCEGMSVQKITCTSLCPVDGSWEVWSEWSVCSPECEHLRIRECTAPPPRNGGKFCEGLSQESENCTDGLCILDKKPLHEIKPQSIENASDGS
Description: as §3, §4

[5] = target: T5, Human Neogenin (R&D Systems catalogue number 8607-NE; BLI antigen) (Human, UniProt Q92859 34-1105); assay: as above
T5 construct: extracellular domain; Bought protein; also called neogenin-1 ectodomain; NEO1
T5 sequence (looked up): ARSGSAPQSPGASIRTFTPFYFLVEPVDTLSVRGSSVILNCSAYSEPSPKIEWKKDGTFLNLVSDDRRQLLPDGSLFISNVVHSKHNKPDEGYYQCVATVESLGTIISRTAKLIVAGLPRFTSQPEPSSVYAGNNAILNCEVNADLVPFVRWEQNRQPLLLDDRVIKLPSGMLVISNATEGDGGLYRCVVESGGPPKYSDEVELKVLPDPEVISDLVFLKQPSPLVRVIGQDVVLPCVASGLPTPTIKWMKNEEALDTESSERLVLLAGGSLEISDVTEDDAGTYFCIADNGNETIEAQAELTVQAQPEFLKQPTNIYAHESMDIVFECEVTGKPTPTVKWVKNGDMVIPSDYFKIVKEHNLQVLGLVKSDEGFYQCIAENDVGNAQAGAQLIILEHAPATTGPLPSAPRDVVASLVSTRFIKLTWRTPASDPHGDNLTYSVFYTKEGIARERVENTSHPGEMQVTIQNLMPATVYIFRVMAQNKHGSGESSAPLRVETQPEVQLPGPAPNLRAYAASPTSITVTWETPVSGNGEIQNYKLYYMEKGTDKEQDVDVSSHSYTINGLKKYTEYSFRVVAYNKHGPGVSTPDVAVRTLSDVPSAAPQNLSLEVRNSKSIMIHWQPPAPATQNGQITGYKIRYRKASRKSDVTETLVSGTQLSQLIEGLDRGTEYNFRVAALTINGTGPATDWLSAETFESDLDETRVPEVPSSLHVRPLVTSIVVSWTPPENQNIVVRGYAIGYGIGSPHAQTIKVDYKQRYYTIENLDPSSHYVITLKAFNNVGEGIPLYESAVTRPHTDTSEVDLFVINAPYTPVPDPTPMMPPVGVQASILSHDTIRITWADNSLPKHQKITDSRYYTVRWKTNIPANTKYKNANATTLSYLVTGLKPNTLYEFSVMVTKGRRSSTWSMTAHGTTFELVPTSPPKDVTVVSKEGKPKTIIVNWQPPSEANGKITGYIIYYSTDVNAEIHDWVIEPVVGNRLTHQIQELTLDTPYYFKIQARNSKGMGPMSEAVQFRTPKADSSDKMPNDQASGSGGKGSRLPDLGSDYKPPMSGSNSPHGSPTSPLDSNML
Description: as §3, §4

[6] = target: T6, Human recombinant UNC5A (BLI antigen) (Human, UniProt Q6ZN44 26-306); assay: as above
T6 construct: Captured by His tag; also called UNC5A ectodomain
T6 sequence (Q6ZN44 other isoform, or with tags, fused parts or gaps): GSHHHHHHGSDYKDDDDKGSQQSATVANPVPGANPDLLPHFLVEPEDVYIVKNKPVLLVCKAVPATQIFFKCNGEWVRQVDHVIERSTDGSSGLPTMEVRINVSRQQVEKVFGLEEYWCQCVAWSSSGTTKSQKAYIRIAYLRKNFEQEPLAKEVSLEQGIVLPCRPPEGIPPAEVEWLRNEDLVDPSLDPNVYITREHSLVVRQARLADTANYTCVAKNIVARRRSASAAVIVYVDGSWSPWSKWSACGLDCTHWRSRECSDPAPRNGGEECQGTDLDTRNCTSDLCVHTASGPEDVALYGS
Description: as §3, §4

[7] = target: T7, Human recombinant UNC5B (BLI antigen) (Human, UniProt Q8IZJ1 27-377); assay: as above
T7 construct: also called UNC5B ectodomain
Description: as §3, §4

[8] = target: T8, mouse UNC5C in frozen C57BL/6 mouse brain sections (mouse, UniProt O08747 41-931); assay: immunofluorescence on frozen mouse brain sections, 10 µg/ml antibody
T8 construct: Native protein in fixed tissue sections; also called UNC5C in its natural central nervous system (CNS) context; mouse brain tissue
T8 sequence (O08747 41-931 limits assumed): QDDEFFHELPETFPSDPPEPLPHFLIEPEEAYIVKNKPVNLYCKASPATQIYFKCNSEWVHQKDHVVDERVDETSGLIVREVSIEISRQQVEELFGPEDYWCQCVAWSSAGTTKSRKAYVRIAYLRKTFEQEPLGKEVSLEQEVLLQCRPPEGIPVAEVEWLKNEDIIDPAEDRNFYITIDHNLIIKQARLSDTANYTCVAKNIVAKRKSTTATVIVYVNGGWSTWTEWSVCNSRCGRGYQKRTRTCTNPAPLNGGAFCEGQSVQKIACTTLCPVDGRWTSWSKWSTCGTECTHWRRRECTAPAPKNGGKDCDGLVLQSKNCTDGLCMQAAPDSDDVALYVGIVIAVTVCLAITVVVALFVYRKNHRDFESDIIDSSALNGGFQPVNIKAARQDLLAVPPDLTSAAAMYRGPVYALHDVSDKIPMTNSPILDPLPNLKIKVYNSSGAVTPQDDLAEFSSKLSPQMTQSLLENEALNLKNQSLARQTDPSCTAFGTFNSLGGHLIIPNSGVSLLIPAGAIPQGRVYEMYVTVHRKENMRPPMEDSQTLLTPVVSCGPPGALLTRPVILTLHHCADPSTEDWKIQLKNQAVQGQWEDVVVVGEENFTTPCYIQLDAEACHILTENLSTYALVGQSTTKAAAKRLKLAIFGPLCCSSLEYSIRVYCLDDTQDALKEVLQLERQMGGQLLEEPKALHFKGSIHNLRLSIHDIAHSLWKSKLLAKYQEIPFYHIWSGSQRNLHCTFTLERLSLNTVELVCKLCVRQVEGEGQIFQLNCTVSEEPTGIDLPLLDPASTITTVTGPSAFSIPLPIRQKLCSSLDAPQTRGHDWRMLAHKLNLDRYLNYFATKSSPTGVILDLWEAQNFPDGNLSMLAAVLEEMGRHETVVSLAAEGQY

[9] = target: T9, UNC5C recombinant human antigen, Fc-tagged (R&D Systems, #1005-UN) (human, UniProt O95185 41-380, limits assumed); assay: direct ELISA
T9 construct: Bought protein; also called rhUNC5C; not shown: Fc tag of the bought protein
T9 sequence (O95185 41-380 limits assumed): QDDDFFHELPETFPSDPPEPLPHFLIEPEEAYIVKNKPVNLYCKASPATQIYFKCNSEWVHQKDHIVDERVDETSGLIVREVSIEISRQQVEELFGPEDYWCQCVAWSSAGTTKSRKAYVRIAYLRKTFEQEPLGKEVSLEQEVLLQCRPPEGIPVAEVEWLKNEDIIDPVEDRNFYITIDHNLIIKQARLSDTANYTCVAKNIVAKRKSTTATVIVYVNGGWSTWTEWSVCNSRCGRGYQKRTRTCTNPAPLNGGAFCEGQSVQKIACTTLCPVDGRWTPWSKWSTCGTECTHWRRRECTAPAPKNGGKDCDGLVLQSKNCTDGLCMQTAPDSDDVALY
Experimental: as §1, §2

[10] = target: T10, Recombinant cyno UNC5C (N-terminal His and FLAG tag), in-house production from HEK293F cells (cyno, UniProt O95185 41-380 (human entry), limits assumed); assay: direct ELISA
T10 construct: also called cyno UNC5C (Inhouse antigen); cyno antigen
T10 sequence (O95185 other isoform, or with tags, fused parts or gaps limits assumed): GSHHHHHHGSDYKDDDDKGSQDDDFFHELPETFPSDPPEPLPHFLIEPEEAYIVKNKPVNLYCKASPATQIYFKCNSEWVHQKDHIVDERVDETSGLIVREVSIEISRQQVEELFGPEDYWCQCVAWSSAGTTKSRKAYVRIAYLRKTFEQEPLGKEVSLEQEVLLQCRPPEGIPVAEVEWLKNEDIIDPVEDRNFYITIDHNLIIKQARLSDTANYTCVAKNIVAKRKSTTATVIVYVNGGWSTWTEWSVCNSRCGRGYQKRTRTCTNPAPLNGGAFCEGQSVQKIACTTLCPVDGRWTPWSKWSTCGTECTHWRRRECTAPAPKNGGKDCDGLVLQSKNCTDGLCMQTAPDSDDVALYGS
Experimental: as §1, §2

[11] = target: T9, UNC5C recombinant human antigen, …; assay: ELISA, antigen down

T1 sequence (O08747 other isoform, or with tags, fused parts or gaps limits assumed): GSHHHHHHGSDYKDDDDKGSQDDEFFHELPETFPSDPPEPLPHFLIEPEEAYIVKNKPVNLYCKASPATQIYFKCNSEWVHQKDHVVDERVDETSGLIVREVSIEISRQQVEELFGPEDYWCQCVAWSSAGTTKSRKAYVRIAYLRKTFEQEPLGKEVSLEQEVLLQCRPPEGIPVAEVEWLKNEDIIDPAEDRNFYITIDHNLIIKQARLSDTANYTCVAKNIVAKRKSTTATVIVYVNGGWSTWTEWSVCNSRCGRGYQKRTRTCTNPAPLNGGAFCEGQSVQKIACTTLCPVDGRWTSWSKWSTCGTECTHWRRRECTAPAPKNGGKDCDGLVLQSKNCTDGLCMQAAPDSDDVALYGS

B1: ATL_0005262 (antibody, human IgG1, V domains shown)
VH: QVQLQESGPGLVKPSETLSLTCTVSGGSISSYFWTWIRQPPGKRLEWIGYIHNSGTTNQNPSLKSRVTISIDTSKNHFSLKLSSVTAADTAVYYCARGRGMATLPFDYWGQGTLVTVSS
VL: not shown
notes: also called ATL_5262; ATL5262
Question: Does B1 bind [1]?
Answer: binds

Question: Does B1 bind [2]?
Answer: binds

Question: Does B1 bind [3]?
Answer: no binding (tested: up to 100 nM)

Question: Does B1 bind [4]?
Answer: no binding (tested: up to 100 nM)

Question: Does B1 bind [5]?
Answer: no binding (tested: up to 100 nM)

Question: Does B1 bind [6]?
Answer: no binding (tested: up to 100 nM)

Question: Does B1 bind [7]?
Answer: no binding (tested: up to 100 nM)

Question: Does B1 bind [8]?
Answer: binds

B2: ATL_0006039 (antibody, IgG1, V domains shown)
VH: QVQLQESGPGLVKPSETLSLTCTVSGGSISSYFWTWIRQPPGKRLEWIGYIHNSGTTNQNPSLKSRVTISIDKSKNHFSLKLSSVTAADTAVYYCARGRGMATLPFDYWGQGTLVTVSS
VL: not shown
notes: also called ATL_6039
Question: Does B2 bind [2]?
Answer: binds

B3: ATL_0006191 (antibody, IgG1, V domains shown)
VH: QVQLQESGPGLVKPSETLSLTCTVSGGSIGSYFWSWIRQTPGKGLEWIGYIHYSGSSNYNPSLKSRVTISVDTFKNQFSLKLTSVTAADTAVYYCARGRGMATLPFDYWGQGTLVTVSS
VL: not shown
notes: ATL_5262 homologue VH paired with the VL of ATL_5262; also called ATL_6191; ATL6191
Question: Does B3 bind [1]?
Answer: binds

Question: Does B3 bind [2]?
Answer: binds

B4: ATL_0006001 (antibody, IgG1, V domains shown)
VH: QVQLQESGPGLVKPSETLSLTCTVSGGSISSYFWTWIRQPPGKRLEWIGYIHNSGTTNQNPSLKSRVTISIDTSKNHFSLKLSSVTAADTAVYYCARGRGMATLPFDYWGQGTLVTVSS
VL: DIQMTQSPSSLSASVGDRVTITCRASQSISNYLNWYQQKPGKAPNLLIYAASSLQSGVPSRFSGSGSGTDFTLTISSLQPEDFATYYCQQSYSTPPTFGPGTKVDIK
notes: VL pairing variant of ATL_5262; also called ATL_6001
Question: Which results are given for B4?
Answer: binding result [1]: binds; signal over lysozyme control (fold) [9]: ≥ 3 fold

B5: ATL_0005338 (antibody, V domains shown)
VH: EVKLDETGGGLVQPGRPMKLSCVASGFTFSDYWMNWVRQSPEKGLEWVAQIRNKPYNYETYYSDSVKGRFTISRDDSKSSVYLQMNNLRVEDMGIYYCTGSYYGMDYWGQGTSVTVSS
VL: DVVMTQTPLSLPVSLGDQASISCRSSQSLVNSNGNTYLRWYLQKPGQSPKVLIYKVSNRVSGVPDRFSGSGSGTDFTLKISRVEAEDLGVYFCSQSTHVPWTFGGGTKLEIK
notes: also called ATL_5338
Question: What does the source list for B5?
Answer: binding result [10]: no binding (tested: <1 µM); binding result [2]: no binding (tested: <1 µM)

B6: ATL_0006534 (antibody, V domains shown)
VH: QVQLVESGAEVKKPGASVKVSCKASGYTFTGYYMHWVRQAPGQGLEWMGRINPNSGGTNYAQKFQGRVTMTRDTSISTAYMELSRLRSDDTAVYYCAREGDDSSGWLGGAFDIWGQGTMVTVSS
VL: NFMLTQPHSVLESPGKTVTIPCTRSSGSIASNYVQWYQQRPGSAPTAVIFEDNVRPSGVPDRFSGSVDSSSNSASLTISGLKTEDEGDFYCQSYDSSGHVVFGGGTKVTVL
notes: also called ATL_6534; Y_0001393-001
Question: For B6, which EC50 [11] is on record?
Answer: 0.01 nM
